± gives the uncertainty stated by the source.
Experiment: protein stability index of a GFP-peptide fusion (yeast GPS) (PSI 1-4); higher = more stable; sorted into four equal gates, so the index is relative within each strain
Summary of the method: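 The protein stability index combines read frequencies across sorting gates, each weighted by its gate number and then summed. To obtain those frequencies, a pooled yeast library of GFP fusions to tiled 17-residue yeast protein peptides, on a plasmid also expressing Cherry, was grown to mid-log phase in leucine-free medium. The cells were sorted into four equal gates by GFP/Cherry ratio before plasmid amplification by PCR and Illumina sequencing.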

Row | Sequence | protein stability index (doa10∆) | protein stability index (pdr5∆) | protein stability index (san1∆) | protein stability index (ubr1∆)
1 | GSTGGLGASFGQQQQQS [YGL172W/NUP49] | 2.76 ± 0.2 | 2.81 ± 0.076 | 2.12 ± 0.12 | 3.1 ± 0.1
2 | KSMKYVKKILPLYARYI [ECM29] | 1.38 ± 0.093 | 1.19 ± 0.069 |  | 1.18 ± 0.1
3 | LQHLRSRCHLVTKDTKK [SRP68] | 2.93 ± 0.11 | 2.88 ± 0.11 | 2.93 ± 0.12 | 3.12 ± 0.056
4 | YDSRGVGEMKLLKKKDD [YLR335W/NUP2] | 2.51 ± 0.098 | 2.64 ± 0.17 | 2.52 ± 0.1 | 2.6 ± 0.17
5 | VPRAALEERFDPKSPTK [YMR129W/POM152] | 3.15 ± 0.062 | 3.09 ± 0.064 | 3.01 ± 0.043 | 3.1 ± 0.047
6 | PKNLLKKFIEISDVKIQ [PRP8] | 1.76 ± 0.064 | 1.88 ± 0.067 | 1.76 ± 0.13 | 2.26 ± 0.05
7 | KVAHTSYKRIYGEYPPT [PRE8] | 3.02 ± 0.062 | 3.14 ± 0.068 | 3.01 ± 0.085 | 3.09 ± 0.049
8 | AELIPELYSFQQLVDSE [SNF12] | 1.79 ± 0.08 | 2.12 ± 0.067 | 2.67 ± 0.057 | 1.87 ± 0.047
9 | KDGAKFIEVRNFLGDKK [RPL9A] |  |  |  | 1.35 ± 0.27
10 | TTDKNTTDDKSMDTKKK [BRN1] | 3.51 ± 0.1 | 3.51 ± 0.084 | 3.61 ± 0.039 | 3.33 ± 0.053
11 | EYNEDSRLCTPIPVQGE [RPN13] |  |  | 2.27 ± 0.14 | 3.11 ± 0.28
12 | HAGTAIGIMASDGIVLA [PRE9] | 2.96 ± 0.095 | 3.02 ± 0.14 | 3.09 ± 0.1 | 2.42 ± 0.14
13 | ELDPECQLQNSDNSEEE [RRP43] | 3.14 ± 0.075 | 2.95 ± 0.066 | 2.94 ± 0.054 | 3 ± 0.063
14 | AAIWTLCKTKMVCETDV [RPO21] | 1.55 ± 0.059 | 1.69 ± 0.057 | 1.44 ± 0.1 | 1.47 ± 0.034
15 | STELNNKQYELFMKSLI [SWI1] | 3.03 ± 0.075 | 2.94 ± 0.058 | 3.16 ± 0.039 | 2.74 ± 0.048
16 | QRKEIKDRISSCSSKEK [SMC4] | 2.28 ± 0.1 | 2.7 ± 0.063 | 2.49 ± 0.12 | 2.89 ± 0.09
17 | NQNICTSVTRRSPVFAL [GRR1] | 1.43 ± 0.039 | 1.6 ± 0.037 | 1.5 ± 0.058 | 1.74 ± 0.031
18 | VSSSLYERRFGPYFVGP [PUP3] | 2.79 ± 0.13 | 2.88 ± 0.16 | 2.62 ± 0.13 | 2.95 ± 0.095
19 | NVYVLPKNLLKKFIEIS [PRP8] | 1.93 ± 0.048 | 2.16 ± 0.045 | 2.06 ± 0.084 | 1.79 ± 0.048
20 | LIQLGVKPLESSAKRSK [SRP72] | 3.11 ± 0.073 | 2.97 ± 0.11 | 2.56 ± 0.12 | 2.88 ± 0.045
21 | IPIAIVLKACGILSDLE [RET1] | 1.4 ± 0.057 | 1.43 ± 0.061 | 1.36 ± 0.096 | 2.02 ± 0.053
22 | NGVNVQIDQLNRLLPNL [GRR1] | 2.86 ± 0.044 | 3.07 ± 0.05 | 2.88 ± 0.039 | 2.91 ± 0.04
23 | GVTDLFRHFIGIKAKHD [ISW2] | 1.2 ± 0.13 | 1.43 ± 0.11 |  | 
24 | MRSKLEKLTLVTLSEIY [CSN9] | 1.56 ± 0.05 | 1.79 ± 0.035 | 1.79 ± 0.07 | 1.79 ± 0.051
25 | KLSNIWMQRQLIKGDAG [SRB2] | 2.93 ± 0.23 | 1.16 ± 0.14 |  | 1.25 ± 0.26
26 | ALEYIGAKVKTMRRQKL [RET1] | 2.1 ± 0.069 | 2.48 ± 0.097 | 2.22 ± 0.089 | 2.19 ± 0.066
27 | QIPTVSSPLGFEETKLS [SIR4] | 3.06 ± 0.12 | 3.05 ± 0.17 | 2.63 ± 0.14 | 2.9 ± 0.081

Row | Sequence | protein stability index (doa10∆) | protein stability index (pdr5∆) | protein stability index (san1∆) | protein stability index (ubr1∆)
28 | LKSESATSQYLKQDLKK [YGL172W/NUP49] | 2.81 ± 0.079 | 2.88 ± 0.072 | 2.9 ± 0.061 | 2.95 ± 0.079
29 | DTSYKIDGKTVSYKDYS [SMC1] | 2.6 ± 0.049 | 2.79 ± 0.042 | 2.58 ± 0.046 | 2.95 ± 0.04
30 | AVKRGTCAVGVKGKNCV [PRE6] | 1.06 ± 0.11 | 1.62 ± 0.18 | 1.39 ± 0.27 | 2.51 ± 0.17
31 | RERIRKGLQIYQSSVQE [PRP8] |  |  | 1.81 ± 0.24 | 
32 | RLKQVFNRALDQSISKL [NNF1] | 2.05 ± 0.056 | 2.11 ± 0.039 | 1.93 ± 0.043 | 2.16 ± 0.036
33 | ALALYVDAYRRLENKLS [SRP68] | 1.78 ± 0.2 | 1.42 ± 0.11 |  | 1.52 ± 0.1
34 | AKVNRPAKIVNFEKPKN [RPN5] | 2.93 ± 0.069 | 3.12 ± 0.069 | 2.89 ± 0.056 | 3.12 ± 0.054
35 | LQEKEQLYFKKKVNYKV [ISW2] | 2.96 ± 0.15 | 3.23 ± 0.15 | 3.26 ± 0.23 | 3.48 ± 0.12
36 | YSTCPSETDLNDIPLGS [SRB8] | 2.52 ± 0.13 | 2.72 ± 0.18 | 2.36 ± 0.14 | 2.47 ± 0.078
37 | KYISAELYAQLRENGLV [SNU114] | 2.91 ± 0.13 | 2.99 ± 0.12 | 3.21 ± 0.092 | 3.07 ± 0.076
38 | QIRSADEPMTTFYKCVN [RPC11] | 2.26 ± 0.2 | 2.54 ± 0.078 | 2.2 ± 0.14 | 2.77 ± 0.085
39 | GAIAYNQFKRIDTLLYL [RET1] | 1.4 ± 0.1 | 1.42 ± 0.1 | 1.48 ± 0.14 | 1.54 ± 0.066
40 | TEGEPKKKRGFLGLFGR [SRP68] | 3.17 ± 0.094 | 3.46 ± 0.093 | 2.92 ± 0.068 | 3.01 ± 0.06
41 | GNGKLSEHFLYLAKELN [RPN1] | 3.06 ± 0.23 | 2.19 ± 0.18 | 2.42 ± 0.2 | 2.98 ± 0.29
42 | PVVINLDAKNKVFVPPK [RPO31] | 2.93 ± 0.12 | 3.13 ± 0.13 | 3.33 ± 0.11 | 2.95 ± 0.15
43 | YKKSTENESTNYQYKIQ [MED7] | 2.58 ± 0.046 | 2.48 ± 0.045 | 2.41 ± 0.055 | 2.59 ± 0.035
44 | TELSNKETTIEKLSSEI [YIL149C/MLP2] | 3.03 ± 0.073 | 2.96 ± 0.097 | 3.21 ± 0.072 | 3.13 ± 0.051
45 | RQREMAEEQTKLQSQSL [YLR018C/POM34] | 3.18 ± 0.045 | 3.28 ± 0.046 | 3.11 ± 0.05 | 3.1 ± 0.036
46 | KLKEMQKVLNAHRQRAM [SMC4] | 1.84 ± 0.099 | 2.14 ± 0.12 | 1.9 ± 0.12 | 1.57 ± 0.055
47 | PQNEKPPAYALLGSCQT [RPC25] | 2.83 ± 0.26 | 2.76 ± 0.17 |  | 2.45 ± 0.13
48 | LLTLIVREYEQPDANKK [ISW2] |  |  | 3.09 ± 0.2 | 
49 | RVRTDDSVLLNRGNKKR [YML031W/NDC1] | 3.29 ± 0.13 | 3.4 ± 0.16 | 3.08 ± 0.058 | 3.3 ± 0.097
50 | DVIAWKNVLANSIWGSS [ITC1] | 2.83 ± 0.14 | 2.95 ± 0.088 | 3.49 ± 0.12 | 3.28 ± 0.072
51 | LLIHRKGLTYLHLDYNF [PRP8] | 1.77 ± 0.043 | 1.28 ± 0.034 | 1.32 ± 0.079 | 1.56 ± 0.048
52 | KKWKKYWQYKAGIPIGL [SWP82] | 1.94 ± 0.067 | 2.25 ± 0.081 | 2.61 ± 0.11 | 2.01 ± 0.04
53 | LKSPVLSKLCVPVANQF [QCR7] | 2.22 ± 0.053 | 2.45 ± 0.065 | 1.92 ± 0.053 | 2.01 ± 0.031
54 | SNLQRAQNVPMNIIQQQ [GAL11] | 2.47 ± 0.052 | 2.55 ± 0.047 | 2.34 ± 0.078 | 2.34 ± 0.031

Source: the supplement of paper PMC9732359
